Assay results published in the supplement of paper PMC10126150.
± gives the standard deviation of the averaged measurements.

System: ATP
Test: switch fluorescence ratio, 500 uM ATP over buffer (Cy3 cluster intensity, sum of 5 cycles each) (fold (ratio)); higher = stronger signal-on switching upon ATP binding; sequences stand for … in TCGTCGGCAGCGTCAGATGTGTATAAGAGACAGTTTTTTTTTTTTTTTTTTTTTTTTT…TC
Settings: aptamer strand: ATP DNA aptamer (quencher-CACCTGGGGGAGTATTGCGGAGGAAGG + anchor), 100 nM annealed; ATP concentration: 500 uM
Summary of the method: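 Cy3-labelled switching-strand clusters on a modified Illumina MiSeq flow-cell were annealed to 100 nM quencher-labelled ATP aptamer and imaged first in selection buffer, then after 15 min with 500 uM ATP at 22 °C. NaOH stripping and re-annealing separated each of five buffer/ATP cycles, and clusters outside 100-1000 RFU were excluded. The fluorescence ratio sums target-cycle Cy3 intensity over buffer-cycle Cy3 intensity per cluster and averages it per switch-domain sequence.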
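Note: ATP exposure 15 min at 22 °C before imaging.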

| Sequence | switch fluorescence ratio |
| --- | --- |
| GTTTATTCGG | 0.981 ± 0.019 |
| GTTTCCAGGG | 1.16 ± 0.023 |
| GTTTCCGTTG | 0.98414 ± 0.00058 |
| GTTTCGCAGG | 1.01 ± 0.015 |
| GTTTCGCGGT | 1.04 ± 0.067 |
| GTTTCTGTGT | 0.956 ± 0.012 |
| GTTTGAGACG | 0.903 ± 0.044 |
| GTTTGAGGGA | 0.982 ± 0.035 |
| GTTTGAGTTG | 1.01 ± 0.038 |
| GTTTGATAAA | 0.981 ± 0.034 |
| GTTTGATGAA | 0.994 ± 0.084 |
| GTTTGCGTAT | 1.02 ± 0.048 |
| GTTTGGAGAA | 1.01 ± 0.034 |
| GTTTGGCTTT | 1.015 ± 0.0012 |
| GTTTGGGAAC | 1.02 ± 0.019 |
| GTTTGGGGCC | 1.057 ± 0.01 |
| GTTTGGGTGA | 1 ± 0.026 |
| GTTTGGGTGG | 0.9979 ± 0.0065 |
| GTTTGGTATG | 0.988 ± 0.017 |
| GTTTGGTCTT | 0.95 ± 0.017 |
| GTTTGGTTTT | 0.99 ± 0.014 |
| GTTTGTCCTG | 1.007 ± 0.0071 |
| GTTTGTGAAC | 0.9821 ± 0.006 |
| GTTTGTGGAG | 0.9683 ± 0.0071 |
| GTTTGTGGGT | 0.977 ± 0.011 |
| GTTTGTGGTG | 1.01 ± 0.017 |

| Sequence | switch fluorescence ratio |
| --- | --- |
| GTTTGTGTTG | 0.993 ± 0.017 |
| GTTTGTTATG | 0.999 ± 0.042 |
| GTTTGTTCGG | 0.995 ± 0.015 |
| GTTTGTTTAC | 0.987 ± 0.014 |
| GTTTTAAGTG | 0.981 ± 0.034 |
| GTTTTAATTA | 1.01 ± 0.021 |
| GTTTTAGCGC | 1 ± 0.049 |
| GTTTTAGGGA | 0.979 ± 0.037 |
| GTTTTATCAG | 0.961 ± 0.039 |
| GTTTTATGCG | 1.02 ± 0.035 |
| GTTTTATTCT | 1 ± 0.023 |
| GTTTTATTGA | 0.986 ± 0.015 |
| GTTTTCATGG | 0.996 ± 0.013 |
| GTTTTCCGGG | 1.01 ± 0.027 |
| GTTTTCGTCG | 1.01 ± 0.054 |
| GTTTTCTGTT | 1.0024 ± 0.00021 |
| GTTTTGGCG | 1.03 ± 0.032 |
| GTTTTGGTCG | 0.9894 ± 0.007 |
| GTTTTGTAAG | 1 ± 0.023 |
| GTTTTGTGCA | 0.9978 ± 0.0052 |
| GTTTTTACTA | 0.998 ± 0.014 |
| GTTTTTCTGG | 0.9738 ± 0.0078 |
| GTTTTTGAAT | 0.992 ± 0.033 |
| GTTTTTGACG | 0.955 ± 0.042 |
| GTTTTTGATG | 0.971 ± 0.021 |
| GTTTTTGGGT | 0.984 ± 0.033 |

| Sequence | switch fluorescence ratio |
| --- | --- |
| GTTTTTTCGA | 1.024 ± 0.0051 |
| GTTTTTTGCT | 0.9809 ± 0.0051 |
| GTTTTTTGTT | 0.999 ± 0.043 |
| GTTTTTTTCT | 1 ± 0.051 |
| GTTTTTTTGA | 1.0032 ± 0.00018 |
| TAAAAAAGAG | 0.98 ± 0.03 |
| TAAAAAAGGT | 1.04 ± 0.088 |
| TAAAAAAGTG | 1.02 ± 0.02 |
| TAAAAAATGG | 1 ± 0.044 |
| TAAAAAGAAG | 1 ± 0.045 |
| TAAAAAGGGT | 1 ± 0.048 |
| TAAAAATAAA | 0.995 ± 0.0065 |
| TAAAAATGGT | 1.01 ± 0.024 |
| TAAAAATTTT | 0.999 ± 0.01 |
| TAAAACCGGG | 1 ± 0.025 |
| TAAAACCTGA | 1.17 ± 0.054 |
| TAAAACGCGT | 1.68 ± 0.94 |
| TAAAACTTAC | 1.45 ± 0.1 |
| TAAAAGAGGT | 0.9962 ± 0.0081 |
| TAAAAGCCTG | 1.02 ± 0.052 |
| TAAAAGCTGG | 1.02 ± 0.078 |
| TAAAAGGACG | 1.09 ± 0.024 |
| TAAAAGGGAG | 1.03 ± 0.058 |
| TAAAAGGGGC | 0.985 ± 0.098 |
| TAAAAGGGTG | 0.977 ± 0.033 |
| TAAAAGTAGT | 1.03 ± 0.041 |

| Sequence | switch fluorescence ratio |
| --- | --- |
| TAAAAGTTAA | 0.981 ± 0.018 |
| TAAAATAGTG | 0.997 ± 0.047 |
| TAAAATCATT | 0.974 ± 0.035 |
| TAAAATGGTT | 1.02 ± 0.032 |
| TAAAATTGAT | 0.9818 ± 0.0038 |
| TAAAATTGTT | 0.991 ± 0.052 |
| TAAACACTAA | 1.01 ± 0.038 |
| TAAACCGGTA | 1.03 ± 0.031 |
| TAAACGAAGC | 1.06 ± 0.039 |
| TAAACGGGGG | 1.04 ± 0.045 |
| TAAACGTCGA | 0.962 ± 0.065 |
| TAAACTGGTT | 0.999 ± 0.029 |
| TAAACTTTTG | 0.9786 ± 0.0039 |
| TAAAGAAAGG | 1.02 ± 0.013 |
| TAAAGACAGC | 1.006 ± 0.0073 |
| TAAAGAGATG | 1.011 ± 0.0072 |
| TAAAGAGGTA | 1.02 ± 0.013 |
| TAAAGCGGGC | 1.05 ± 0.043 |
| TAAAGCTGAT | 1.01 ± 0.012 |
| TAAAGGCTGG | 1.015 ± 0.0052 |
| TAAAGGGAAG | 1.01 ± 0.021 |
| TAAAGGGCT | 1.001 ± 0.0055 |
| TAAAGGTCGT | 0.97444 ± 0.00071 |
| TAAAGGTTGC | 0.984 ± 0.02 |
| TAAAGTGCGG | 1.03 ± 0.058 |
| TAAAGTTAAA | 1 ± 0.048 |

| Sequence | switch fluorescence ratio |
| --- | --- |
| TAAAGTTTGC | 0.995 ± 0.017 |
| TAAAGTTTGT | 0.958 ± 0.026 |
| TAAAGTTTTG | 0.995 ± 0.017 |
| TAAATAAATG | 0.976 ± 0.048 |
| TAAATACGGT | 1.03 ± 0.062 |
| TAAATACTCA | 1.16 ± 0.083 |
| TAAATATTAG | 0.9837 ± 0.0031 |
| TAAATATTGG | 1.04 ± 0.034 |
| TAAATATTTT | 1.08 ± 0.14 |
| TAAATCACGC | 1.23 ± 0.24 |
| TAAATCCAGG | 1.24 ± 0.028 |
| TAAATCCTGG | 0.961 ± 0.023 |
| TAAATCGGGG | 0.995 ± 0.049 |
| TAAATGAGGT | 0.998 ± 0.015 |
| TAAATGATAT | 0.984 ± 0.02 |
| TAAATGGGCT | 1.04 ± 0.025 |
| TAAATGGTTG | 0.9863 ± 0.0094 |
| TAAATGTATG | 1.01 ± 0.041 |
| TAAATGTCTT | 1.025 ± 0.0077 |
| TAAATGTGGG | 1 ± 0.069 |
| TAAATGTTGT | 0.9869 ± 0.0055 |
| TAAATTCCGA | 1.07 ± 0.038 |
| TAAATTGCG | 0.9991 ± 0.0013 |
| TAAATTTTCA | 1.03 ± 0.031 |
| TAACAATTTT | 1.01 ± 0.019 |
| TAACACGGTA | 1.16 ± 0.0035 |

| Sequence | switch fluorescence ratio |
| --- | --- |
| TAACAGCTGT | 1.04 ± 0.041 |
| TAACAGTAAC | 1.08 ± 0.05 |
| TAACAGTGAG | 0.964 ± 0.021 |
| TAACATACAT | 1.18 ± 0.11 |
| TAACATTTAT | 0.979 ± 0.027 |
| TAACATTTTT | 1 ± 0.022 |
| TAACCGGGGG | 1.67 ± 1.2 |
| TAACCTGCCC | 2.26 ± 0.12 |
| TAACGCGGAC | 2.5233 ± 3.9e-05 |
| TAACGGGGGG | 0.999 ± 0.045 |
| TAACGGGTTT | 1.02 ± 0.015 |
| TAACGGTCAG | 1.025 ± 0.0095 |
| TAACGGTGTA | 1.02 ± 0.026 |
| TAACGGTTAT | 1.01 ± 0.024 |
| TAACGGTTG | 0.98 ± 0.017 |
| TAACTAAACT | 1.12 ± 0.08 |
| TAACTGACGG | 1.268 ± 0.012 |
| TAAGAAAGGT | 1 ± 0.0053 |
| TAAGAAGGAA | 0.9918 ± 0.0091 |
| TAAGACAGGG | 1.02 ± 0.028 |
| TAAGACCAGT | 0.981 ± 0.034 |
| TAAGAGGCCT | 1.02 ± 0.031 |
| TAAGAGTTGG | 0.999 ± 0.018 |
